The chains are these.
T1: Rad3 (subunit of core TFIIH / TFIIH-ΔTFIIK) (S. cerevisiae, UniProt P06839 1-778)
T1 construct: Rad3, S. cerevisiae, subunit of the seven-subunit core TFIIH; contains the ARCH domain; Stood in the assay as a subunit of core TFIIH inside the reconstituted PIC-ΔTFIIK; also called XPD of metazoan TFIIH (homolog)
T1 sequence (looked up): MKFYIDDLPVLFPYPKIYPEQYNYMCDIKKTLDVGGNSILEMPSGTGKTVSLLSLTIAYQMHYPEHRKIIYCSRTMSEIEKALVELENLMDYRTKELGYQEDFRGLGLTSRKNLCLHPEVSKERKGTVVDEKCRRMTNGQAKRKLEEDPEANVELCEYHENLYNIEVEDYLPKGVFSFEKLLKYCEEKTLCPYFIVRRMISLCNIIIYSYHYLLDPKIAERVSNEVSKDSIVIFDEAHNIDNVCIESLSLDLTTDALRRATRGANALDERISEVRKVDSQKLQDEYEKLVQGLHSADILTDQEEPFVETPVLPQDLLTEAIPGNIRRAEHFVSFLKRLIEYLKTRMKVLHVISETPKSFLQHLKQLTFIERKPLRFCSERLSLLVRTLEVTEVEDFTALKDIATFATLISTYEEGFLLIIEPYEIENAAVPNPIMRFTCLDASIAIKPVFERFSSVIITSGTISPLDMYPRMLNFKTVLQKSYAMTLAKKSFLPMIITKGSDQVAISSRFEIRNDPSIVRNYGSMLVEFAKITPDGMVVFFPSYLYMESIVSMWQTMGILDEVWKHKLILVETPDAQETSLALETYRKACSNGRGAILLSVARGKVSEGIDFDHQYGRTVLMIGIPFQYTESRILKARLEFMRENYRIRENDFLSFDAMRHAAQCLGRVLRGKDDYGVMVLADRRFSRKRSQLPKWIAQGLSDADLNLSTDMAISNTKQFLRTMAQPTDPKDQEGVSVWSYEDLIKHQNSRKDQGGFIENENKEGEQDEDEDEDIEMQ

B1: Rpb4 (subunit of RNA polymerase II) (natural protein, S. cerevisiae, UniProt P20433 1-221, looked up)
chain: MNVSTSTFQTRRRRLKKVEEEENAATLQLGQEFQLKQINHQGEEEELIALNLSEARLVIKEALVERRRAFKRSQKKHKKKHLKHENANDETTAVEDEDDDLDEDDVNADDDDFMHSETREKELESIDVLLEQTTGGNNKDLKNTMQYLTNFSRFRDQETVGAVIQLLKSTGLHPFEVAQLGSLACDTADEAKTLIPSLNNKISDDELERILKELSNLETLY
notes: Rpb4, S. cerevisiae, subunit of RNA polymerase II; Stood in the assay as a subunit of pol II inside the reconstituted PIC-ΔTFIIK
B2: Tfa1 (subunit of TFIIE) (natural protein, S. cerevisiae, UniProt P36100 1-482, looked up)
chain: MDRPIDDIVKNLLKFVVRGFYGGSFVLVLDAILFHSVLAEDDLKQLLSINKTELGPLIARLRSDRLISIHKQREYPPNSKSVERVYYYVKYPHAIDAIKWKVHQVVQRLKDDLDKNSEPNGYMCPICLTKYTQLEAVQLLNFDRTEFLCSLCDEPLVEDDSGKKNKEKQDKLNRLMDQIQPIIDSLKKIDDSRIEENTFEIALARLIPPQNQSHAAYTYNPKKGSTMFRPGDSAPLPNLMGTALGNDSSRRAGANSQATLHINITTASDEVAQRELQERQAEEKRKQNAVPEWHKQSTIGKTALGRLDNEEEFDPVVTASAMDSINPDNEPAQETSYQNNRTLTEQEMEERENEKTLNDYYAALAKKQAKLNKEEEEEEEEEEDEEEEEEEEMEDVMDDNDETARENALEDEFEDVTDTAGTAKTESNTSNDVKQESINDKTEDAVNATATASGPSANAKPNDGDDDDDDDDDEMDIEFEDV
notes: Tfa1, S. cerevisiae, subunit of TFIIE; Stood in the assay as a subunit of TFIIE inside the reconstituted PIC-ΔTFIIK
B3: Tfa2 (subunit of TFIIE) (natural protein, S. cerevisiae, UniProt P36145 1-328, looked up)
chain: MSKNRDPLLANLNAFKSKVKSAPVIAPAKVGQKKTNDTVITIDGNTRKRTASERAQENTLNSAKNPVLVDIKKEAGSNSSNAISLDDDDDDEDFGSSPSKKVRPGSIAAAALQANQTDISKSHDSSKLLWATEYIQKKGKPVLVNELLDYLSMKKDDKVIELLKKLDRIEFDPKKGTFKYLSTYDVHSPSELLKLLRSQVTFKGISCKDLKDGWPQCDETINQLEEDSKILVLRTKKDKTPRYVWYNSGGNLKCIDEEFVKMWENVQLPQFAELPRKLQDLGLKPASVDPATIKRQTKRVEVKKKRQRKGKITNTHMTGILKDYSHRV
notes: Tfa2, S. cerevisiae, subunit of TFIIE; contains the WH domain; Stood in the assay as a subunit of TFIIE inside the reconstituted PIC-ΔTFIIK

The assay concerns the target T1, Rad3 (subunit of core TFIIH / …). In words: cryo-EM structure; PIC-ΔTFIIK reconstituted from purified factors (TFIIA, TFIIB, TBP, TFIIE, TFIIF, TFIIH-ΔTFIIK, pol II, TFIIS) on a HIS4 promoter DNA fragment, nucleotide-free; glycerol gradient with 0-0.125% glutaraldehyde fixation; two forms from 3D classification (form 1 at 3.7 Å, form 2 at 3.8 Å). Conditions: both partners purified.
Regarding B1, the binding result is “binds”.

Turning to B2, the binding result is recorded as “binds”.

For the molecule B3, the binding result is “binds”.

The values above are taken from publication PMC11514446, “Transcription start site scanning requires the fungi-specific hydrophobic loop of Tfb3” (Nucleic Acids Research, 2024).
